Tests used:
[1] = molecular target: recombinant human IL13Rα2hFc chimera (human) (UniProt Q14627); test: SPR, Biacore 3000; mAb immobilized, rhIL13Rα2 injected; 1:1 model
[2] = molecular target: Pngase F-treated rhIL13Rα2hFc (human) (UniProt Q14627); test: plate-bound ELISA, Pngase F-treated rhIL13Rα2hFc
[3] = molecular target: human wild-type IL13Rα2 expressed on the cell surface (human) (UniProt Q14627); test: flow cytometry (APC-A), N10 glioma cells
[4] = molecular target: human wild-type IL13Rα2 expressed on the cell surface (human) (UniProt Q14627); test: flow cytometry (APC-A), N10 glioma cells pre-incubated with 10x excess rhIL13, then mIgG
[5] = molecular target: recombinant human IL13Rα2hFc chimera (human) (UniProt Q14627); test: plate-bound ELISA on rhIL13Rα2hFc

recombinant human IL13Rα2hFc chimera (human), sequence (Q14627 27-343 limits assumed, stated change not applied): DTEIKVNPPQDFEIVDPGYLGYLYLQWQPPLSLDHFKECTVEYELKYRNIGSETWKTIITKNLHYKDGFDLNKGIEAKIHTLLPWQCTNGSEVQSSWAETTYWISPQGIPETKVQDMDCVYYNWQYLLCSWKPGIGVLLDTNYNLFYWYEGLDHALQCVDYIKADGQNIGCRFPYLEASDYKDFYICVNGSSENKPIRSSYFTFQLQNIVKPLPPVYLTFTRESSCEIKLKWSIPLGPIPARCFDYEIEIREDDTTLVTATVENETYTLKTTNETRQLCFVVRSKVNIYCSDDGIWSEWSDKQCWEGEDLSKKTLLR
human wild-type IL13Rα2 expressed on the cell surface (human), sequence (Q14627 27-380): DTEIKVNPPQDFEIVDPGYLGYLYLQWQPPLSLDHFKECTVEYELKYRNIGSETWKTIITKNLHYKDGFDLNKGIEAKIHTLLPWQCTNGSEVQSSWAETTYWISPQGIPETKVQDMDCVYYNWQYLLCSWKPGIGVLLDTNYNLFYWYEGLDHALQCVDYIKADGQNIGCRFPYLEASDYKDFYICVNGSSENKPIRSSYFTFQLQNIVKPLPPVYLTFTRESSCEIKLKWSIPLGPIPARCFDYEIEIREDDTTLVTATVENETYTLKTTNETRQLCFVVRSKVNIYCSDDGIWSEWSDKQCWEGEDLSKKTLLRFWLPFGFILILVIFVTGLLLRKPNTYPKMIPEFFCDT
Pngase F-treated rhIL13Rα2hFc (human), sequence (Q14627 27-343 limits assumed): as the sequence (Q14627 27-343 limits assumed, stated change not applied) above

Kd [1]	koff [1]	kon [1]	percent decrease of binding against untreated protein [2]	% positive cells [3]	% positive cells [4]	EC50 (read off the curve) [5]	Substance
104 nM	0.00231 s⁻¹	22300 M⁻¹ s⁻¹	80%	–	–	–	mAb to IL13Rα2 (clone 83807) (antibody)
–	–	–	–	1.9%	0.9%	–	mIgG (antibody)
46.1 nM	0.00499 s⁻¹	108000 M⁻¹ s⁻¹	–	–	–	0.2 µg/mL	monoclonal antibody to IL13Rα2 (clone B-D13)

— patent US20190300616A1
